T1: FcγRIIa R (human, UniProt P12318 34-217)
T1 construct: extracellular domain; also called FcgRIIa R type; 2aR
T1 sequence (looked up): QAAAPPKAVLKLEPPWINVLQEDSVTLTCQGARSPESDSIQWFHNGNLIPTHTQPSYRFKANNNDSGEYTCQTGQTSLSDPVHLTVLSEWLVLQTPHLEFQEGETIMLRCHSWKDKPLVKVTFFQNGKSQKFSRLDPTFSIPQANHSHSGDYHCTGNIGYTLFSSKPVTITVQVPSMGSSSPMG

B1: GpH7-A5/GpH7-B3 variant P271_02A/GpL16-k0 (antibody, human IgG1, kappa)
heavy 1: not shown
heavy 2: not shown
light: DIVMTQSPLSLPVTPGEPASISCQASESLVHSNRNTYLHWYLQKPGQSPQLLIYKVSNRFSGVPDRFSGSGSGTDFTLKISRVEAEDVGVYYCSQNTHVPPTFGQGTKVEIERTVAAPSVFIFPPSDEQLKSGTASVVCLLNNFYPREAKVQWKVDNALQSGNSQESVTEQDSKDSTYSLSSTLTLSKADYEKHKVYACEVTHQGLSSPVTKSFNRGEC
notes: heterodimerized; also called He Ab P271_02A
B2: GpH7-A5/GpH7-B3 variant P271_11K/GpL16-k0 (antibody, human IgG1, kappa)
heavy 1: not shown
heavy 2: not shown
light: B1 light
notes: heterodimerized; also called He Ab P271_11K
B3: GpH7-A5/GpH7-B3 variant P271_03V/GpL16-k0 (antibody, human IgG1, kappa)
heavy 1: not shown
heavy 2: not shown
light: B1 light
notes: heterodimerized; also called He Ab P271_03V
B4: GpH7-A5/GpH7-B3 variant P271_06M/GpL16-k0 (antibody, human IgG1, kappa)
heavy 1: not shown
heavy 2: not shown
light: B1 light
notes: heterodimerized; also called He Ab P271_06M
B5: GpH7-A5/GpH7-B3 variant Q295_02A/GpL16-k0 (antibody, human IgG1, kappa)
heavy 1: not shown
heavy 2: not shown
light: B1 light
notes: heterodimerized; also called He Ab Q295_02A
B6: GpH7-A5/GpH7-B3 variant P271_07I/GpL16-k0 (antibody, human IgG1, kappa)
heavy 1: not shown
heavy 2: not shown
light: B1 light
notes: heterodimerized; also called He Ab P271_07I
B7: GpH7-A5/GpH7-B3 variant P271_20W/GpL16-k0 (antibody, human IgG1, kappa)
heavy 1: not shown
heavy 2: not shown
light: B1 light
notes: heterodimerized; also called He Ab P271_20W
B8: GpH7-A5/GpH7-B3 variant P271_13S/GpL16-k0 (antibody, human IgG1, kappa)
heavy 1: not shown
heavy 2: not shown
light: B1 light
notes: heterodimerized; also called He Ab P271_13S
B9: GpH7-A5/GpH7-B3 variant P271_12R/GpL16-k0 (antibody, human IgG1, kappa)
heavy 1: not shown
heavy 2: not shown
light: B1 light
notes: heterodimerized; also called He Ab P271_12R
B10: GpH7-A5/GpH7-B3 variant P271_04F/GpL16-k0 (antibody, human IgG1, kappa)
heavy 1: not shown
heavy 2: not shown
light: B1 light
notes: heterodimerized; also called He Ab P271_04F
B11: GpH7-A5/GpH7-B3 variant N325_06M/GpL16-k0 (antibody, human IgG1, kappa)
heavy 1: not shown
heavy 2: not shown
light: B1 light
notes: also called He Ab N325_06M
B12: GpH7-A5/GpH7-B3 variant H268_11K/GpL16-k0 (antibody, human IgG1, kappa)
heavy 1: not shown
heavy 2: not shown
light: B1 light
notes: also called He Ab H268_11K
B13: GpH7-A5/GpH7-B3 variant G237_10E/GpL16-k0 (antibody, human IgG1, kappa)
heavy 1: not shown
heavy 2: not shown
light: B1 light
notes: also called He Ab G237_10E
B14: GpH7-A5/GpH7-B3 variant G237_02A/GpL16-k0 (antibody, human IgG1, kappa)
heavy 1: not shown
heavy 2: not shown
light: B1 light
notes: also called He Ab G237_02A
B15: GpH7-A5/GpH7-B3 variant K326_08L/GpL16-k0 (antibody, human IgG1, kappa)
heavy 1: not shown
heavy 2: not shown
light: B1 light
notes: also called He Ab K326_08L
B16: GpH7-A5/GpH7-B3 variant A330_12R/GpL16-k0 (antibody, human IgG1, kappa)
heavy 1: not shown
heavy 2: not shown
light: B1 light
notes: also called He Ab A330_12R
B17: GpH7-A5/GpH7-B3 variant G237_09D/GpL16-k0 (antibody, human IgG1, kappa)
heavy 1: not shown
heavy 2: not shown
light: B1 light
notes: also called He Ab G237_09D
B18: GpH7-A5/GpH7-B3 variant G237_06M/GpL16-k0 (antibody, human IgG1, kappa)
heavy 1: not shown
heavy 2: not shown
light: B1 light
notes: also called He Ab G237_06M
B19: GpH7-A5/GpH7-B3 variant A330_11K/GpL16-k0 (antibody, human IgG1, kappa)
heavy 1: not shown
heavy 2: not shown
light: B1 light
notes: also called He Ab A330_11K
B20: GpH7-A5/GpH7-B3 variant I332_14T/GpL16-k0 (antibody, human IgG1, kappa)
heavy 1: not shown
heavy 2: not shown
light: B1 light
notes: also called He Ab I332_14T
B21: GpH7-A5/GpH7-B3 variant E333_15Y/GpL16-k0 (antibody, human IgG1, kappa)
heavy 1: not shown
heavy 2: not shown
light: B1 light
notes: also called He Ab E333_15Y
B22: GpH7-A5/GpH7-B3 variant A327_10E/GpL16-k0 (antibody, human IgG1, kappa)
heavy 1: not shown
heavy 2: not shown
light: B1 light
notes: also called He Ab A327_10E
B23: GpH7-A5/GpH7-B3 variant G236_14T/GpL16-k0 (antibody, human IgG1, kappa)
heavy 1: not shown
heavy 2: not shown
light: B1 light
notes: also called He Ab G236_14T
B24: GpH7-A5/GpH7-B3 variant H268_01G/GpL16-k0 (antibody, human IgG1, kappa)
heavy 1: not shown
heavy 2: not shown
light: B1 light
notes: also called He Ab H268_01G
B25: GpH7-A5/GpH7-B3 variant G237_18N/GpL16-k0 (antibody, human IgG1, kappa)
heavy 1: not shown
heavy 2: not shown
light: B1 light
notes: also called He Ab G237_18N
B26: GpH7-A5/GpH7-B3 variant G237_15Y/GpL16-k0 (antibody, human IgG1, kappa)
heavy 1: not shown
heavy 2: not shown
light: B1 light
notes: also called He Ab G237_15Y
B27: GpH7-A5/GpH7-B3 variant E333_08L/GpL16-k0 (antibody, human IgG1, kappa)
heavy 1: not shown
heavy 2: not shown
light: B1 light
notes: also called He Ab E333_08L
B28: GpH7-A5/GpH7-B3 variant E333_09D/GpL16-k0 (antibody, human IgG1, kappa)
heavy 1: not shown
heavy 2: not shown
light: B1 light
notes: also called He Ab E333_09D
B29: GpH7-A5/GpH7-B3 variant A330_15Y/GpL16-k0 (antibody, human IgG1, kappa)
heavy 1: not shown
heavy 2: not shown
light: B1 light
notes: also called He Ab A330_15Y

Each binder was assayed against T2, FcγRIa (human, UniProt P12314 16-292) (assay: SPR; vs GpH7-A5/GpH7-B3/GpL16-k0=100).
T2 construct: extracellular domain; also called FcgRI; CD64
T2 sequence (P12314 16-292): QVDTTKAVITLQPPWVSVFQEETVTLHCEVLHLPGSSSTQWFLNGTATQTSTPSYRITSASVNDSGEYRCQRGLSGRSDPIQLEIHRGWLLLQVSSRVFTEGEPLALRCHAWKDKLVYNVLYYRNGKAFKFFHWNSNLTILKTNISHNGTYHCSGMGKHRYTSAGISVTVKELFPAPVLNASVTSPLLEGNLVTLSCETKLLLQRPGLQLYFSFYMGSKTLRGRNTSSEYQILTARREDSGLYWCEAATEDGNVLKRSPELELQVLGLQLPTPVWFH

| He/Con_1a | Binder |
| --- | --- |
| 104 % of control | B1 |
| 103 % of control | B2 |
| 102 % of control | B3 |
| 102 % of control | B4 |
| 104 % of control | B5 |
| 102 % of control | B6 |
| 103 % of control | B7 |
| 102 % of control | B8 |
| 102 % of control | B9 |
| 102 % of control | B10 |

These binders were tested against T1, FcγRIIa R (assay: SPR Biacore; vs GpH7-A5/GpH7-B3/GpL16-k0 =100).

| He/Con_2aR | Binder |
| --- | --- |
| 152 % of control | B11 |
| 100 % of control | B12 |
| 116 % of control | B13 |
| 126 % of control | B14 |
| 137 % of control | B15 |
| 104 % of control | B16 |
| 156 % of control | B17 |
| 133 % of control | B18 |
| 110 % of control | B19 |
| 105 % of control | B20 |
| 101 % of control | B21 |
| 110 % of control | B22 |
| 103 % of control | B23 |
| 124 % of control | B24 |
| 150 % of control | B25 |
| 129 % of control | B26 |
| 103 % of control | B27 |
| 103 % of control | B28 |
| 102 % of control | B29 |

From US20180155451A1 (published 2018)
